Test results as given in publication PMC6702080 (2019).

Target: T1, BolA2 (Homo sapiens, UniProt Q9H3K6)
T1 chain: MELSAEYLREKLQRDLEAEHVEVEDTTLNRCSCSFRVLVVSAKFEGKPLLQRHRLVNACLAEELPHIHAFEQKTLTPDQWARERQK
Assay: pull-down

B1: PCBP1 KH3 (protein)
chain: ASTQTTHELTIPNNLIGCIIGRQGANINEIRQMSGAQIKIANPVEGSSGRQVTITGSAASISLAQYLINAR
modifications: Fe(II)+GSH
In the case of B1, the Kd is reported as 900 nM.
